Laboratory results taken from patent US6613536B1, “Synthetic peptides and pharmaceutical compositions comprising them for the treatment of systemic lupus erythematosus” (Yeda Research and Development Co. Ltd., priority 1995, dated 2003).

How the values were obtained:
SJL/J and BALB/c mice = assay: Anti-RNP, Sm, Ro and La antibodies in sera of immunized mice (ELISA); type: in vivo, mouse; conditions: for anti-RNP antibodies in sera / anti-Sm, anti-La and anti-Ro antibodies in sera: BALB/c mice; for anti-RNP, anti-Sm and anti-La antibodies in sera: sera diluted 1:10, compared to normal mice or p278
Description: The same sera of the mice as described in Examples 2 and 3 were used for detection of anti-RNP, Sm, Ro and La antibodies.
Plates were purchased as pre-coated plates and were blocked with 1% ovalbumin in PBS for 2 hr. Thereafter the plates were washed as in Example 2 above, incubated in duplicates with 1:10 diluted sera, washed again and ELISA was carried out as described in Example 2 above.

[1] = test system: lymph node cells (LNC) of BALB/c and SJL mice; assay: In vivo inhibition of LNC proliferation to human mAb 16/6 Id; conditions: 200 μg/mouse i.v., vs not treated or p307
Description: BALB/c (FIG. 7a) and SJL (FIG. 7b) mice were immunized with human mAb 16/6 Id (1 μg/mouse in CFA i.d. in the hind footpads) and were injected (200 μg/mouse i.v. in PBS) with either peptide Ia or IIIa, respectively. Proliferation responses to mAb 16/6 Id were measured in LNC taken from immunized but not-treated mice (filled squares), from mice treated concomitantly with immunization with the control peptide p307 (half filled squares) or from mice treated with the appropriate CDR-based peptide Ia or IIIa (open squares). Proliferation responses were also shown to the immunodominant CDR-based peptide Ia or IIIa of LNC taken from 16/6 Id immunized non-treated mice (filled circles) or from mice treated with the appropriate CDR-based peptide Ia or IIIa (open circles). Results are expressed as mean CPM of triplicates.

[2] = target: T1, MHC class II products on splenic antigen-presenting cells (APC) (Mus musculus, UniProt P06345+P14437); assay: Inhibition of peptide binding to APC by anti-Ia mAb; design: concentration or dose not given beside the values; conditions: SJL, H-2 s
T1 construct: Splenic adherent cells (10^6/100 μl/tube) isolated from BALB/c, SJL, C3H.SW or C57BL/6 mice; from tissue; host or cells: mouse spleen adherent cells (BALB/c, SJL, C3H.SW, C57BL/6)
T1 sequence (P14437 1-233): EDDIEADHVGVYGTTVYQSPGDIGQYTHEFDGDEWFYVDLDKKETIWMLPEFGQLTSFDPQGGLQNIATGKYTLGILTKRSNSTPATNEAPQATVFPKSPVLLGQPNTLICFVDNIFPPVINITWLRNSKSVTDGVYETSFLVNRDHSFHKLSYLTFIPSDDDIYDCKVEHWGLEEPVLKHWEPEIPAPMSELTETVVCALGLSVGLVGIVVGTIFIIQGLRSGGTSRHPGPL
T1 sequence (P06345 28-263): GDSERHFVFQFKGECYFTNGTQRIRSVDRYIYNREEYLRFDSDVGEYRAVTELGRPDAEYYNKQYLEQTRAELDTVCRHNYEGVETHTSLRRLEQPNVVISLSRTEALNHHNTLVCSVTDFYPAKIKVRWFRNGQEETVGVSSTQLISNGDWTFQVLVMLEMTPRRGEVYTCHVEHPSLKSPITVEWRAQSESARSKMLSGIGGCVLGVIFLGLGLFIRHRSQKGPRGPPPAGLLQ
Description: (§1) Spleen cells suspended in RPMI 1640 medium containing 10% FCS were incubated in Petri dishes for 60 min at 37° C. Thereafter, non-adherent cells were removed, the plates were washed, and the adherent cells were collected from the plates using a rubber policeman (Costar, Mass., USA). These cells (1×10^6/100 μl/tube) were incubated with the biotinylated peptides in PBS containing 0.1% BSA (high purity grade, Amresco, Ohio, USA) for 16 hr at 37° C., followed by incubation with phycoerythrin (PE)-streptavidin (Jackson ImmunoResearch) for 30 min at 4° C. Thereafter the samples were incubated with biotinylated anti-streptavidin (1:60, Vector Laboratories, Burlingame, Calif.) and for an additional period with PE-streptavidin, all for 30 min at 4° C. The cells were washed twice with cold PBS/BSA solution after each incubation. Thereafter, cells were analyzed by flow cytometry using the FACSort cytometer and CELLQuest software (Beckton-Dickinson, Mountain View, Calif.). […]
(§2) Binding of the CDR-based peptides Ia and IIIa to APC was determined as described in Materials and Methods herein and the results are shown in Table 2. […] The results are shown in Table 3: Inhibition of binding was specific and ranged from 60% to 100%.

[3] = target: T2, MHC class II products on splenic antigen-presenting cells (APC) (Mus musculus, UniProt P14434+P14483); assay: as above; design: concentration or dose not given beside the values
T2 construct: Splenic adherent cells (10^6/100 μl/tube) isolated from BALB/c, SJL, C3H.SW or C57BL/6 mice; from tissue; host or cells: mouse spleen adherent cells (BALB/c, SJL, C3H.SW, C57BL/6)
T2 sequence (P14434 24-256): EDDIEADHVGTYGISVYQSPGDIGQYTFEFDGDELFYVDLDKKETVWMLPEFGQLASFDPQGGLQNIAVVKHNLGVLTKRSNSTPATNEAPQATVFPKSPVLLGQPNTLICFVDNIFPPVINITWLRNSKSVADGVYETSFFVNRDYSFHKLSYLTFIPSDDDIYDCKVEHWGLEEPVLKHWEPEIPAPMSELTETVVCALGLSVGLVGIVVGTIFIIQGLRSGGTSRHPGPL
T2 sequence (P14483 28-265): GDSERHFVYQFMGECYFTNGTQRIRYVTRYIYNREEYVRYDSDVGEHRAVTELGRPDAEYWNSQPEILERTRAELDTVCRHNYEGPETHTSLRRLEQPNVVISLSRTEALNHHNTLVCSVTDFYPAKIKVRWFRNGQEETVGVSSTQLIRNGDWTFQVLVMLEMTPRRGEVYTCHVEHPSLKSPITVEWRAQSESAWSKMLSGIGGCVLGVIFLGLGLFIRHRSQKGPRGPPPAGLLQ
Description: as §1, §2

[4] = C3H.SW, H-2 b, mAb anti I-A^b (34-5-3)
[5] = C3H.SW, H-2 b, mAb anti I-A^d (MKD6)
[6] = C57BL/6, H-2 b, mAb anti I-A^b (34-5-3)
[7] = C57BL/6, H-2 b, mAb anti I-A^d (MKD6)

% inhibition of binding to APC ([2]; mAb anti I-A^d (MKD6)) | % inhibition of binding to APC ([2]; mAb anti I-A^s (10.3.6.2)) | % inhibition of binding to APC [3, 4] | % inhibition of binding to APC [3, 5] | % inhibition of binding to APC [3, 6] | % inhibition of binding to APC [3, 7] | Substance | anti-RNP antibodies in sera (SJL/J and BALB/c mice; sera diluted 1:10) | anti-Sm, anti-La and anti-Ro antibodies in sera (SJL/J and BALB/c mice; sera diluted 1:10) | anti-RNP, anti-Sm and anti-La antibodies in sera (SJL/J and BALB/c mice; SJL/J mice) | proliferative responses to mAb 16/6 Id of LNC ([1]; BALB/c mice immunized with human mAb 16/6 Id) | anti-Ro autoantibodies in sera (SJL/J and BALB/c mice; SJL/J mice, sera diluted 1:10) | proliferative responses to mAb 16/6 Id of LNC ([1]; SJL mice immunized with human mAb 16/6 Id)
0% | 100% | 60% | 0% | 82% | 0% | TGYYMQWVKQSPEKSLEWIG [peptide Ia] | very high levels of anti-RNP antibodies | produced detectable antibodies | High levels of anti-RNP, anti-Sm and anti-La antibodies | inhibited |  | 
0% | 92.8% | 84.4% | 25% | 59.3% | 0% | YYYCARFLWEPYAMDYWGQGS (YYCARFLWEPYAMDYWGQGS) [peptide IIIa, based on the CDR3 region of the VH chain of mAb 5G12] | very high levels of anti-RNP antibodies | very low levels of anti-Sm, anti-La and anti-Ro antibodies | High levels of anti-RNP, anti-Sm and anti-La antibodies |  | extremely high levels of anti-Ro autoantibodies | inhibited
